Publication PMC12455665, “Convergent construction of N-terminally modified CCL5 chemokines for photoaffinity receptor pull-down using cross-aldol bioconjugations” (RSC Chemical Biology, 2025)

Molecular target: T1, CCR5 chemokine receptor on CHO-CCR5 cells (UniProt P51681 1-352)
T1 construct: also called the receptor; source: Chinese hamster ovary cell line (CHO), stably expressing CCR5
Assay: not stated; receptor binding of CCL5 P2G against wild-type CCL5 (Fig. S14); methods in the SI, not shown

T1 sequence (P51681 whole entry): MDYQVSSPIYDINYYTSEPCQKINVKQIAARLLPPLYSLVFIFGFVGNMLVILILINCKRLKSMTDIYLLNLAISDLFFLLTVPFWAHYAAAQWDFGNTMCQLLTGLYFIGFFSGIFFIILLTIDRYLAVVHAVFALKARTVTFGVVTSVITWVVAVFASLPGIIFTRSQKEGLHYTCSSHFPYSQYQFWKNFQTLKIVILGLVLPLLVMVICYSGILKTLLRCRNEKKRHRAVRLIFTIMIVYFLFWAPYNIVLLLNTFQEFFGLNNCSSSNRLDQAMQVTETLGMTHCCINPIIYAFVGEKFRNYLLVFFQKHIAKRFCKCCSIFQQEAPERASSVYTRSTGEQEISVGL

- fold reduction of binding against wild-type CCL5: 3 fold
B1: CCL5 P2G 1 (ligand, human, UniProt P13501 24-91, looked up)
chain: SGYSSDTTPCCFAYIARPLPRAHIKEYFYTSGKCSNPAVVFVTRKNRQVCANPEKKWVREYINSLEMS
notes: Human C–C chemokine ligand 5 (CCL5, RANTES), with its native N-terminal serine after traceless SUMO cleavage, point mutant P2G; also called CCL5 point mutant (P2G); CCL5 P2G variant; source: E. coli SHuffle LysY, purified (His-SUMO tag capture, SUMO protease cleavage); not shown: His, N-terminal, cleaved; SUMO, N-terminal, cleaved
